{
  "source": "patent US20240307442",
  "data": [
    {"protein": "Active Neutrophil Elastase (protein) IVGGRRARPHAWPFMVSLQLRGGHFCGATLIAPNFVMSAAHCVANVNVRAVRVVLGAHNLSRREPTRQVFAVQRIFENGYDPVNLLNDIVILQLNGSATINANVQVAQLPAQGRRLGNGVQCLAMGWGLLGRNRGIASVLQELNVTVVTSLCRRSNVCTLVRGRQAGVCFGDSGSPLVCNGLIHGIASFVRGGCASGLYPDAFAPVAQFVNWIDSIIQ", "values": [
      {"measurement": "Western Blot of ECM molecules degraded by culture media", "setting": "collagen I", "value": "NE released by GCC CAR CK+NE cells can degrade ECM molecules when GCC CAR CK+NE Cells are co-cultured with the substrate cells"},
      {"measurement": "Western Blot of ECM molecules degraded by culture media", "setting": "collagen IV", "value": "NE released by GCC CAR CK+NE cells can degrade ECM molecules when GCC CAR CK+NE Cells are co-cultured with the substrate cells"},
      {"measurement": "Western Blot of ECM molecules degraded by culture media", "setting": "fibronectin", "value": "NE released by GCC CAR CK+NE cells can degrade ECM molecules when GCC CAR CK+NE Cells are co-cultured with the substrate cells"}
    ]}
  ]
}
